These results are taken from article PMC2654154, “Molecular Basis of Filamin A-FilGAP Interaction and Its Impairment in Congenital Disorders Associated with Filamin A Mutations” (PLoS ONE, 2009).

Data set [1] concerns the target FilGAP (Homo sapiens) (UniProt Q8N264). Conditions: cited from earlier work.
The target in data set [2] is T1, FLAG-tagged full-length FLNa (filamin A), wild type (human, UniProt P21333 1-2647).
T1 construct: filamin A (FLNa), human, full length; also called FLAG-FLNa; WT FLAG-FLNa; source: Sf9 insect cells (baculovirus), purified
T1 sequence (P21333 whole entry): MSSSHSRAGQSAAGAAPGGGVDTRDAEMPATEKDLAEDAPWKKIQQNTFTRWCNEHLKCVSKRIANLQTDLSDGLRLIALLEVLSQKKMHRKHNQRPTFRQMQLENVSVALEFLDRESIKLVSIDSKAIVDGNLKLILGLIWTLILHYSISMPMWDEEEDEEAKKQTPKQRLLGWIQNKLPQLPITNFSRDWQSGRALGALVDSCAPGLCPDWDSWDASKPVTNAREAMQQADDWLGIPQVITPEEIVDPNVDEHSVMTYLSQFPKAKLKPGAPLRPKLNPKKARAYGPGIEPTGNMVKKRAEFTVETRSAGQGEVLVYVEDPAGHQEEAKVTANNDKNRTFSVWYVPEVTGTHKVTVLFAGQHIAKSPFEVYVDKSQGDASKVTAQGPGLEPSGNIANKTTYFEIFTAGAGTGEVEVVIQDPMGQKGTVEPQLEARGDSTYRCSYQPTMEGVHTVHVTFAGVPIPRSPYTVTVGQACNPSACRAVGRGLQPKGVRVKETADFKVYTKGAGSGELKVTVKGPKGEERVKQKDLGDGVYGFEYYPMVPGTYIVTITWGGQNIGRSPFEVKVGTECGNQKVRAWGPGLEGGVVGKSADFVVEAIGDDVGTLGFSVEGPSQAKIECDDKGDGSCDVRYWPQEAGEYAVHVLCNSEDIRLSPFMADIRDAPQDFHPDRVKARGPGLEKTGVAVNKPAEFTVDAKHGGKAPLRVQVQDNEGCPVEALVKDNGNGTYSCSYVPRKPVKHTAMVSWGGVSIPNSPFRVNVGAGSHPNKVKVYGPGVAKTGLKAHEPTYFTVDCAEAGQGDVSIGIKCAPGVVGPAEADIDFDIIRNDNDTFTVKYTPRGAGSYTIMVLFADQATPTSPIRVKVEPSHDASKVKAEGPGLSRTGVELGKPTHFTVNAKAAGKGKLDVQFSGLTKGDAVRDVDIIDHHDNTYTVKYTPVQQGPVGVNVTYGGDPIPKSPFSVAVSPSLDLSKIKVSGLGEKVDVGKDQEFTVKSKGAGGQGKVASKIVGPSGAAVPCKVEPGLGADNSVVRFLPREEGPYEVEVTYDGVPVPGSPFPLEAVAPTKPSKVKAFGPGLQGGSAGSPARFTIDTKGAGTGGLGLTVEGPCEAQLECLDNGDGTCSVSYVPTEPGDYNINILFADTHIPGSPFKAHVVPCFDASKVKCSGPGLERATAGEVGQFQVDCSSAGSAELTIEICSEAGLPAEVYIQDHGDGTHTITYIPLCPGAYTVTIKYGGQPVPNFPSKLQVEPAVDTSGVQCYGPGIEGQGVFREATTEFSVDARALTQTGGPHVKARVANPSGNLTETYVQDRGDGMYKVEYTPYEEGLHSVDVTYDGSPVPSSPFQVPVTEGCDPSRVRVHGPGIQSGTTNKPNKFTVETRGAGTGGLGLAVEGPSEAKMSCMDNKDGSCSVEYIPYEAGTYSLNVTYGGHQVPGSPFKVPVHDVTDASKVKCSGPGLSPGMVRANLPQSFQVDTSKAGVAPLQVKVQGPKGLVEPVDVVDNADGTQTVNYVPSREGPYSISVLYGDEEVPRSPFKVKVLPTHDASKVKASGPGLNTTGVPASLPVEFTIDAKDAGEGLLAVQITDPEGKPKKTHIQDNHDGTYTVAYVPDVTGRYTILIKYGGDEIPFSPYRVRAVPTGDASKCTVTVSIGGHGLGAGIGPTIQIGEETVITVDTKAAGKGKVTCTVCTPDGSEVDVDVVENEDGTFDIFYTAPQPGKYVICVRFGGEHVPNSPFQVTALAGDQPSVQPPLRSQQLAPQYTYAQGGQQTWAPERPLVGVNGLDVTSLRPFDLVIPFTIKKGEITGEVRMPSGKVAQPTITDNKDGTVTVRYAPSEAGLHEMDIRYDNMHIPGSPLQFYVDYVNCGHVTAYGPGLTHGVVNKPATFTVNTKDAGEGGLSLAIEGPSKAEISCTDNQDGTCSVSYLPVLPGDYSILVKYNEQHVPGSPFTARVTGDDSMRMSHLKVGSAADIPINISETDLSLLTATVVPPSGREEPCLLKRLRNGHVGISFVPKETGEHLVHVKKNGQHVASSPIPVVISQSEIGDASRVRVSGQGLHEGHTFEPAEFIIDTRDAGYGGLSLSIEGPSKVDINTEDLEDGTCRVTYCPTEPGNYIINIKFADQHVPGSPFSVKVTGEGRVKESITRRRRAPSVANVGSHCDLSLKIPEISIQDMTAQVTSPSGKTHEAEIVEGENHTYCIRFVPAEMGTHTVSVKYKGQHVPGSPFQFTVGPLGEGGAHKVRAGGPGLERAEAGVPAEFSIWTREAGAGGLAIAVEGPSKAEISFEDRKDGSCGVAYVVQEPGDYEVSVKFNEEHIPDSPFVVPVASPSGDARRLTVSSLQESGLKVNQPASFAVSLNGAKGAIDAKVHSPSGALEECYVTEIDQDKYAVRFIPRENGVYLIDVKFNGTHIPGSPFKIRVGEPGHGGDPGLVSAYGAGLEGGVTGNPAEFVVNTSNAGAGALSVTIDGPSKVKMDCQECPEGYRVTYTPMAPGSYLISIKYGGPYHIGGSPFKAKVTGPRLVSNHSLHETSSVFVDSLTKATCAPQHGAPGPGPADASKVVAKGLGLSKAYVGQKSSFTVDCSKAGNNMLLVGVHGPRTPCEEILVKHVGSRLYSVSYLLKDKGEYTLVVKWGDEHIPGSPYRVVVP
The experiment in a line: pull-down; GST-His- or MBP-His-FilGAP constructs (various concentrations) with 25 nM FLAG-FLNa on FLAG-specific mAb M2 agarose; 50 mM Tris-HCl, 150 mM NaCl, 0.1% Triton X-100, 0.1 mM EGTA, pH 7.4, 1 h, 25°C; immunoblot for GST or MBP. Conditions: both partners purified.

Data set [3] has as its target T2, FLAG-FLNa L2439M (disease-related) (human, UniProt P21333 1-2647, L2439M).
T2 construct: filamin A (FLNa), human, full length, transcript of the patient mutation 7315C>A; source: Sf9 cells, purified
The experiment in a line: pull-down; full-length FilGAP or His-FilGAP lacking 649–725 (50 nM in Figure 1C) mixed with increasing amounts of wild-type or mutant FLAG-FLNa, precipitated with FLAG-specific mAb on agarose; immunoblot for FilGAP or the His tag. The settings on record: both partners purified. On the technique in general: A western blot detects proteins with antibodies after separation by electrophoresis.

Data set [4] deals with the molecule itself. The experiment in a line: SEC; Superose 6 10/300 GL, 20 mM Tris-HCl pH 7.4, 150 mM NaCl, 0.5 mM EGTA, 4°C; size from calibration with standards. (In general: SEC sorts molecules by how far they enter the pores of the column.)

T2 sequence (P21333 whole entry L2439M): as the sequence (P21333 whole entry) above, with L2439M counted along it

Turning to filamin A (from UniProt P21333), the Kd in data set [1] was 200 nM.

B1: GST-His-FilGAP 649–748 (C-terminal 100 residues) (domain or fragment, human, UniProt Q8N264 649-748, looked up)
chain: SSLKQEMTKQKIEYESRIKSLEQRNLTLETEMMSLHDELDQERKKFTMIEIKMRNAERAKEDAEKRNDMLQKEMEQFFSTFGELTVEPRRTERGNTIWIQ
notes: FilGAP, human, C-terminal 100 residues; also called GST-FilGAP fragment; source: E. coli (pGEX-4T-3-HT), purified
As to B1, the binding result in data set [2] is “binds”.

B2: full-length FilGAP, purified from Sf9 insect cells (natural protein, human, UniProt Q8N264 1-748, looked up)
chain: MEENNDSTENPQQGQGRQNAIKCGWLRKQGGFVKTWHTRWFVLKGDQLYYFKDEDETKPLGTIFLPGNKVSEHPCNEENPGKFLFEVVPGGDRDRMTANHESYLLMASTQNDMEDWVKSIRRVIWGPFGGGIFGQKLEDTVRYEKRYGNRLAPMLVEQCVDFIRQRGLKEEGLFRLPGQANLVKELQDAFDCGEKPSFDSNTDVHTVASLLKLYLRELPEPVIPYAKYEDFLSCAKLLSKEEEAGVKELAKQVKSLPVVNYNLLKYICRFLDEVQSYSGVNKMSVQNLATVFGPNILRPKVEDPLTIMEGTVVVQQLMSVMISKHDCLFPKDAELQSKPQDGVSNNNEIQKKATMGQLQNKENNNTKDSPSRQCSWDKSESPQRSSMNNGSPTALSGSKTNSPKNSVHKLDVSRSPPLMVKKNPAFNKGSGIVTNGSFSSSNAEGLEKTQTTPNGSLQARRSSSLKVSGTKMGTHSVQNGTVRMGILNSDTLGNPTNVRNMSWLPNGYVTLRDNKQKEQAGELGQHNRLSTYDNVHQQFSMMNLDDKQSIDSATWSTSSCEISLPENSNSCRSSTTTCPEQDFFGGNFEDPVLDGPPQDDLSHPRDYESKSDHRSVGGRSSRATSSSDNSETFVGNSSSNHSALHSLVSSLKQEMTKQKIEYESRIKSLEQRNLTLETEMMSLHDELDQERKKFTMIEIKMRNAERAKEDAEKRNDMLQKEMEQFFSTFGELTVEPRRTERGNTIWIQ
notes: FilGAP, human, full length; Tag-free FilGAP was prepared from His-FilGAP with TEV protease; also called Purified FilGAP; source: Sf9 cells, purified (Ni-NTA)
As for B2, in data set [3], the binding result is “binds”.

B3: His-tag full-length FilGAP (natural protein, human, UniProt Q8N264 1-748, looked up)
chain: B2 chain
notes: FilGAP, human, full length; also called His-FilGAP; His-tag FilGAP; source: Sf9 cells, purified (Ni-NTA)
As to B3, in data set [4], the “stoichiometry N” value is 2.

For orientation: Kd means the concentration at which binding is half-saturated. A word on the stoichiometry N: it is a count of units in the complex or per binding partner.
